Among the data in patent US9029508 (dated 2015) are EC50 values, retold here.

The chains are these.
B1: DVD456 DLL4 arm (antibody, V domains shown)
VH: QVQLVQSGAEVKKPGASVKISCKASGYSFTAYYIHWVKQAPGQGLEWIGYISSYNGATNYNQKFKGRVTFTTDTSTSTAYMELRSLRSDDTAVYYCARDYDYDVGMDYWGQGTLVTVSS
VL: DIVMTQSPDSLAVSLGERATISCRASESVDNYGISFMKWFQQKPGQPPKLLIYAASNQGSGVPDRFSGSGSGTDFTLTISSLQAEDVAVYYCQQSKEVPWTFGGGTKVEIKR
modifications: DVD-Ig inner
B2: DVD443 DLL4 arm (antibody, V domains shown)
VH: B1 VH
VL: B1 VL
modifications: DVD-Ig outer
B3: DVD450 DLL4 arm (antibody, V domains shown)
VH: B1 VH
VL: B1 VL
modifications: DVD-Ig inner
B4: DVD471 DLL4 arm (antibody)
chain 1: EVQLVESGGGLVQPGGSLRLSCAASGFTFTDNWISWVRQAPGKGLEWVGYISPNSGFTYYADSVKGRFTISADTSKNTAYLQMNSLRAEDTAVYYCARDNFGGYFDYWGQGTLVTVSS
chain 2: DIQMTQSPSSLSASVGDRVTITCRASQDVSTAVAWYQQKPGKAPKLLIYSASFLYSGVPSRFSGSGSGTDFTLTISSLQPEDFATTYYCQQSYTGTVTFGQGTKVEIKR
modifications: DVD-Ig outer
B5: DVD479 DLL4 arm (antibody)
chain 1: B4 chain 1
chain 2: B4 chain 2
modifications: DVD-Ig outer
B6: DVD480 DLL4 arm (antibody)
chain 1: B4 chain 1
chain 2: B4 chain 2
modifications: DVD-Ig inner
B7: DVD481 DLL4 arm (antibody)
chain 1: B4 chain 1
chain 2: B4 chain 2
modifications: DVD-Ig outer
B8: DVD476 DLL4 arm (antibody)
chain 1: B4 chain 1
chain 2: B4 chain 2
modifications: DVD-Ig inner
B9: DVD516 DLL4 arm (antibody, V domains shown)
VH: EVQLQQSGPELEKPGASVKISCKASGYSFTGYNMNWVKQSNGKSLEWIGNIDPYFGGTNYNQKFKGKATLTVDKSSSTAYMQLKSLTSEDSAVYYCARNYDYDGGCFDYWGQGTTLTVSS
VL: QAVVTQESALTTSPGETVTLTCRSSTGAVTTSNYANWVQEKPDHLFTGLIGGTNNRAPGVPARFSGSLIGDKAALTITGAQTEDEAIYFCALWYSNHWVFGGGTKLTVLG
modifications: DVD-Ig inner
B10: DVD517 DLL4 arm (antibody, V domains shown)
VH: B9 VH
VL: B9 VL
modifications: DVD-Ig outer
B11: DVD491 DLL4 arm (antibody, V domains shown)
VH: EVQLQQSGPELVKPGASVKMSCKASGYTFTSYVINWVKQKPGQGLEWIGLINPYNDGTKYNEKFKVKATLTSDKSSSTAYMELSSLTSEDSAVYYCASYYYGSRYYFDYWGQGTTLTVSS
VL: DIQMTQSSSYLSVSLGGRVTITCKASDHINNWLAWYQQKPGNAPRLLISGATSLETGVPSRFSGSGSGKDYTLSITSLQTEDVATYYCQQYWSIPLTFGAGTKLELKR
modifications: DVD-Ig outer
B12: DVD492 DLL4 arm (antibody, V domains shown)
VH: B11 VH
VL: B11 VL
modifications: DVD-Ig inner
B13: DVD501 DLL4 arm (antibody, V domains shown)
VH: B11 VH
VL: B11 VL
modifications: DVD-Ig outer
B14: DVD502 DLL4 arm (antibody, V domains shown)
VH: B11 VH
VL: B11 VL
modifications: DVD-Ig inner
B15: DVD503 DLL4 arm (antibody, V domains shown)
VH: B11 VH
VL: B11 VL
modifications: DVD-Ig outer

The target of this test is DLL4 (human, UniProt Q9NR61). As to the kind of experiment: ELISA.
DLL4, sequence (Q9NR61 27-524): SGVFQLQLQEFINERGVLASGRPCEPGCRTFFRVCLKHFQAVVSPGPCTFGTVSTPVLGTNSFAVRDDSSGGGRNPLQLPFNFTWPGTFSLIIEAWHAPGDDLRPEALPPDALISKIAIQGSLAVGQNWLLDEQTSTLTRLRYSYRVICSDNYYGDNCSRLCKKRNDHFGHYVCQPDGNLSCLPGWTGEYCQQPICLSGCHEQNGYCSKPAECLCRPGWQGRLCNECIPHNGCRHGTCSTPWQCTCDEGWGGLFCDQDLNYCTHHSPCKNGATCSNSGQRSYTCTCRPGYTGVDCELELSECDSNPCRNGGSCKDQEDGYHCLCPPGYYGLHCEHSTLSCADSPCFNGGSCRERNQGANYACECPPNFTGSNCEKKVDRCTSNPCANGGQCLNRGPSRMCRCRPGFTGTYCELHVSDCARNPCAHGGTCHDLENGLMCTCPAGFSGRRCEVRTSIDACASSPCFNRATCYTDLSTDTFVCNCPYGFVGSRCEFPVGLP
As for B1, the EC50 turned out to be 2.48 nM.
For the molecule B2, a half-maximal response (EC50) required 0.2 nM.
With B3, the EC50 amounted to 1.99 nM.
B4 gave a 50% effective concentration (EC50) of 0.89 nM.
Under B5 stands 1.69 nM; under B6, 0.6 nM; under B7, 3.3 nM.
B8 came in with an EC50 of 0.3 nM.
Regarding B9, the EC50 was found to be 4.33 nM.
B10: the response was half-maximal at 0.1 nM (EC50).
On to B11, for which the EC50 was found to be 0.39 nM.
On to B12, for which it took 1.77 nM to reach a half-maximal effect (EC50).
For the molecule B13, the EC50 stood at 0.18 nM.
B14 gave an EC50 of 3.17 nM.
Under B15 stands 0.33 nM.
